The target in the assay is RyR1 with a His10 tag inserted at position 500 (His^500-RyR1) (rabbit) (UniProt P11716). The experiment in a line: FRET or BRET.
Chain of UniProt P11716 (P11716 whole entry): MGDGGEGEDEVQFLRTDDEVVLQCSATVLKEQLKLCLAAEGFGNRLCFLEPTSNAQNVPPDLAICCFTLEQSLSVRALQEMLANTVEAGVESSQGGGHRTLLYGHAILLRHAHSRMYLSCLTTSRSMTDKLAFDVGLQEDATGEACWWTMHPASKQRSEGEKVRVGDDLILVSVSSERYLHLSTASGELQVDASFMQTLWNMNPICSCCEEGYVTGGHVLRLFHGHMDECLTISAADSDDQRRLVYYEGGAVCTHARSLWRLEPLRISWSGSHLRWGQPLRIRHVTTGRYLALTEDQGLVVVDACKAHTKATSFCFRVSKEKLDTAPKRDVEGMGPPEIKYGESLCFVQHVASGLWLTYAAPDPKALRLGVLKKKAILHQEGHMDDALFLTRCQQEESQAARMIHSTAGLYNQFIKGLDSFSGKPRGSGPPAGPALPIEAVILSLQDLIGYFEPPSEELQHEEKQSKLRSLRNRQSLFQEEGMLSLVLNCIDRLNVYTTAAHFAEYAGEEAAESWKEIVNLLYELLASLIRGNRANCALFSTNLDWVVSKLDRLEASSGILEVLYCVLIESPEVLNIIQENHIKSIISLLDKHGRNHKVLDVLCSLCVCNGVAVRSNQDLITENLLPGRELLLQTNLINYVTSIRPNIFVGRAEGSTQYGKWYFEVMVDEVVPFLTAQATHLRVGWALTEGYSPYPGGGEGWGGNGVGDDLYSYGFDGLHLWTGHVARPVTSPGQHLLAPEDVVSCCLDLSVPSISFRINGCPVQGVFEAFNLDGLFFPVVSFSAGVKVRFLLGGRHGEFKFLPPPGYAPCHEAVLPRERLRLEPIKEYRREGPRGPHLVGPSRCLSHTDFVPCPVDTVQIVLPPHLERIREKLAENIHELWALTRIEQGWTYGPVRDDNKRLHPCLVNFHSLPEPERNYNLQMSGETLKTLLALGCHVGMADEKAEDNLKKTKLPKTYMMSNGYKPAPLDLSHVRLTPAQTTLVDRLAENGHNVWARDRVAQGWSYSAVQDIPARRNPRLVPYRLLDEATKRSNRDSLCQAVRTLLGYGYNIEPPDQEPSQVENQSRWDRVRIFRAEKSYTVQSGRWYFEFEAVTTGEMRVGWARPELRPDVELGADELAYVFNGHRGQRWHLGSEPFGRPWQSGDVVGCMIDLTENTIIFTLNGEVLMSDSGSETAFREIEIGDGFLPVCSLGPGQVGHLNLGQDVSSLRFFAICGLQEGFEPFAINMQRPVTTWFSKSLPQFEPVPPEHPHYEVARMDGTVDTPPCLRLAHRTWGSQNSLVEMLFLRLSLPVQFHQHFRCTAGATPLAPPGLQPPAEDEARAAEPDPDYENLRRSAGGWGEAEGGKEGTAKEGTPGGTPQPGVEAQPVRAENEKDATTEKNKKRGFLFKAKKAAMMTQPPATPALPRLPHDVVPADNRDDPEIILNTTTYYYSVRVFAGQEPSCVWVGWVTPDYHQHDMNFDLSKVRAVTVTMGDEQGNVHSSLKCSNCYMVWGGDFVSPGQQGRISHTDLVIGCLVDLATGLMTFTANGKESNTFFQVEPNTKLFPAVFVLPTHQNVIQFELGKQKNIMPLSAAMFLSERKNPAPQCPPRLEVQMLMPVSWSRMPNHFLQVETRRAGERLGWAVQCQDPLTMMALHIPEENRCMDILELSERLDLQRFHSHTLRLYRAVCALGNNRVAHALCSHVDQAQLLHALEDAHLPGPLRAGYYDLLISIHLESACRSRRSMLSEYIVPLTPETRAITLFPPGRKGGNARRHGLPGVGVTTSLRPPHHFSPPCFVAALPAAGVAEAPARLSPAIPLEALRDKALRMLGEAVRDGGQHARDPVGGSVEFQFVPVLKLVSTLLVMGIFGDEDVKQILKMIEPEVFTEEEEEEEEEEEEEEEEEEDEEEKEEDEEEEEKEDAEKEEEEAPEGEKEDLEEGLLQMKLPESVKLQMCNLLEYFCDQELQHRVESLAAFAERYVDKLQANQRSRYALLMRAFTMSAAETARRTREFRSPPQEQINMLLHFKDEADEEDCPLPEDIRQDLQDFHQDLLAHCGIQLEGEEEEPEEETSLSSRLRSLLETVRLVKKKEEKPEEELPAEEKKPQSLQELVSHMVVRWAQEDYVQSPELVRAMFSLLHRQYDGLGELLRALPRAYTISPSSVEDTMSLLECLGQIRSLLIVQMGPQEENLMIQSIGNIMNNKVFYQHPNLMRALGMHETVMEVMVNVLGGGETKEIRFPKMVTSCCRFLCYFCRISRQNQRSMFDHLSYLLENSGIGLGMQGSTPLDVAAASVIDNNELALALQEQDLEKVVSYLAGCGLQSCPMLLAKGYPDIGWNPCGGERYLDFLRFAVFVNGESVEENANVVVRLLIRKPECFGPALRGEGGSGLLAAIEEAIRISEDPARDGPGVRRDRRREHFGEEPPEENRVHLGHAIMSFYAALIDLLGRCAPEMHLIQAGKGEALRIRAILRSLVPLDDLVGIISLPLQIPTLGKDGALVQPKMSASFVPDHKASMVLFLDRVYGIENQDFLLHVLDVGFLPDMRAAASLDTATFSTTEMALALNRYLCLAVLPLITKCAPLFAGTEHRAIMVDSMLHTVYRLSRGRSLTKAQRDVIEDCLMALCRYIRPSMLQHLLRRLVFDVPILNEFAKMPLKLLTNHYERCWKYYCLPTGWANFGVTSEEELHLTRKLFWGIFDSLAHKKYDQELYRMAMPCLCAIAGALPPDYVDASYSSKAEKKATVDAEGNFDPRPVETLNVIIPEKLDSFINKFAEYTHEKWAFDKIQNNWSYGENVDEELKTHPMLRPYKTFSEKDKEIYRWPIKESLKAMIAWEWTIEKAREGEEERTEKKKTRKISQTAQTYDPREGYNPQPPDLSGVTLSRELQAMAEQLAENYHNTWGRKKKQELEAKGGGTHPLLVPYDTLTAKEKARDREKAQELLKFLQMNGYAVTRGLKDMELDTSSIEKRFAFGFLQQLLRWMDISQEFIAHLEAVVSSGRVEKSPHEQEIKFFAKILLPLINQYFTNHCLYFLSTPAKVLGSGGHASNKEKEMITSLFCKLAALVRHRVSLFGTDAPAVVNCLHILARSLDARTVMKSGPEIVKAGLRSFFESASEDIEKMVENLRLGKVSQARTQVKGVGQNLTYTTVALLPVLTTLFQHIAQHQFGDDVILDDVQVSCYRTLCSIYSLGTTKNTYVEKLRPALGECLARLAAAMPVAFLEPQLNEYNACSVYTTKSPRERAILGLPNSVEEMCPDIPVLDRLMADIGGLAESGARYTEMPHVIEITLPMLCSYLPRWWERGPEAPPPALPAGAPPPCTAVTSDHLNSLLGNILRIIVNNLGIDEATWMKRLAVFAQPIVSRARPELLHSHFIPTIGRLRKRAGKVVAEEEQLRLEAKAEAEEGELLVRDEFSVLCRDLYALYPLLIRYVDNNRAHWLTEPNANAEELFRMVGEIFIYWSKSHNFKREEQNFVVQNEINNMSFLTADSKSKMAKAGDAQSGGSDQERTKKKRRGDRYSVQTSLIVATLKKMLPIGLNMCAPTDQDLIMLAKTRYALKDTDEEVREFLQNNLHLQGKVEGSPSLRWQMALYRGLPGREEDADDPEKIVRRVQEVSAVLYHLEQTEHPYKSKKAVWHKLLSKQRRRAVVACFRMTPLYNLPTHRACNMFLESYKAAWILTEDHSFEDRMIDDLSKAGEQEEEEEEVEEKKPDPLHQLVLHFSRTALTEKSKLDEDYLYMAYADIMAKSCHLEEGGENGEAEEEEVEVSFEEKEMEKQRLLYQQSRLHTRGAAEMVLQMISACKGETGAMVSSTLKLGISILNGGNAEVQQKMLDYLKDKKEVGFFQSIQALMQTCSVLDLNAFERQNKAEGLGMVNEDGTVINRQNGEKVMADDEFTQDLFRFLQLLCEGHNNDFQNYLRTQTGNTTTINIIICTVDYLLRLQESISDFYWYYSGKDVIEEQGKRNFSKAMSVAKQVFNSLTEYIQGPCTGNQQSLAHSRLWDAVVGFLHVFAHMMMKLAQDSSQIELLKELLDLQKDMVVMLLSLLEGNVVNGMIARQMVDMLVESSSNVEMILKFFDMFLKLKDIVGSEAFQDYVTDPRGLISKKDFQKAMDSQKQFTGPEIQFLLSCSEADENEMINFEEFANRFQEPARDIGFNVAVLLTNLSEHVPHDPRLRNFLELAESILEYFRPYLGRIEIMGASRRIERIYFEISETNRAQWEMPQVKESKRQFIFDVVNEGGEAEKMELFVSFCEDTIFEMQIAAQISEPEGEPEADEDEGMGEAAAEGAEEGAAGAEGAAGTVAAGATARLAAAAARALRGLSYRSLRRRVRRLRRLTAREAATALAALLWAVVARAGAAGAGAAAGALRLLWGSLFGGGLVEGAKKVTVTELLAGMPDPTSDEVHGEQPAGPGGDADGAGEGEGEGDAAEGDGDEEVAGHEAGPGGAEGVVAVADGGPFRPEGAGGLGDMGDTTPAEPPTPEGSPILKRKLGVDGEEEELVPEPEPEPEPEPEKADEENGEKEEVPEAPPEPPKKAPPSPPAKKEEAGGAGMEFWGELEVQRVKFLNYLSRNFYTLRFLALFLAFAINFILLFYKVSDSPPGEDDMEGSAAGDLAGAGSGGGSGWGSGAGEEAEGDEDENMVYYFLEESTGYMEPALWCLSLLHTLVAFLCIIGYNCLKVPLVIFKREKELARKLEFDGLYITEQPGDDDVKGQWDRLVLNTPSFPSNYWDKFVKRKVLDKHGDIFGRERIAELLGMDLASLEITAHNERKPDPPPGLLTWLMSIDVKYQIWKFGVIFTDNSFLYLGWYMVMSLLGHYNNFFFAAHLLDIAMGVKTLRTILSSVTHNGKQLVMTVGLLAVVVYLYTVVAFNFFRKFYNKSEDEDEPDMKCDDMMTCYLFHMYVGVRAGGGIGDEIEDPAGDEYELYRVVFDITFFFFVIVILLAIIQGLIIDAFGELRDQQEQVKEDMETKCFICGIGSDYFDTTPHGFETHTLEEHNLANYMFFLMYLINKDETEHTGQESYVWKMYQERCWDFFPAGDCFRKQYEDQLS

“FKBP12.6 with AF488 conjugated to amino acid residue 14 (D14-FKBP) (from UniProt P68106 1-108) (natural protein)” had an FRET efficiency (AF488 on FKBP to Cy3NTA on the His10 tag) of 0.18.

The record behind these values is article PMC4156536.
